This note sets out measurements from the supplement of paper PMC7877785.

± gives the uncertainty stated by the source.

This data set is described as follows: self-splicing fitness, log relative to wild type (ln ratio); higher = more splicing; Tetrahymena group I intron in knt gene, E. coli kanamycin selection, DiMSum; sequences stand for … in CUCUCU…GGAGGGAAAAGUUAUCAGGCAUGCACCUGGUAGCUAGUCUUUAAACCAAUAGAUUGCAUCGGUUUAAAAGGCAAGACCGUCAAAUUGCGGGAAAGGGGUCAACAGCCGUUCAGUACCAAGUCUCAGGGGAAACUUUGAGAUGGCCUUGCAAAGGGUAUGGUAAUAAGCUGACGGACAUGGUCCUAACCACGCAGCCAAGUCCUAAGUCAACAGAUCUUCUGUUGAUAUGGAUGCAGUUCACAGACUAAAUGUCGGUCGGGGAAGAUGUAUUCUUCUCAUAAGAUAUAGUCGGACCUCUCCUUAAUGGGAGCUAGCGGAUGAAGUGAUGCAACACUGGAGCCGCUGGGAACUAAUUUGUAUGCGAAAGUAUAUUGAUUAGUUUUGGAGUACUCGUGGUCG
Summed up:
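DiMSum derived fitness as the error-weighted combination of fold changes across replicates, kanamycin versus no kanamycin, normalised to wild type. E. coli BL21(DE3) held the library, which randomised all eight P1ex-region intron nucleotides within the knt kanamycin-resistance gene on pET-22b(+). Six replicate transformations grew overnight at 37°C or 30°C on LB agar with or without 25 μg/mL kanamycin, also containing 100 μg/mL carbenicillin, 50 μM IPTG and 0.2% rhamnose, and pooled colonies were amplicon-sequenced on an Illumina HiSeq 2500.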

Take AAGGAGCAAUAUUACGGGUU: the “self-splicing fitness (ln)” value (30 °C) is -2.46 ± 0.23 and the “self-splicing fitness (ln)” value (37 °C) was -2.16 ± 0.28. Take AAGGAGCAAUAUUACGGUCU: the “self-splicing fitness (ln)” value by setting is: (30 °C) -2.3 ± 0.15; (37 °C) -0.298 ± 0.12. The corresponding values for AAGGAGCAAUAUUACGGUGA are -2.44 ± 0.21 and -1.09 ± 0.2. For the sequence AAGGAGCAAUAUUACGGUUC, the “self-splicing fitness (ln)” value is, setting by setting: (30 °C) -1.51 ± 0.17; (37 °C) -2.92 ± 0.35. As for AAGGAGCAAUAUUACGUAGU, under “37 °C”, the “self-splicing fitness (ln)” value is -2.03 ± 0.27.

For the sequence AAGGAGCAAUAUUACGUCAG, the “self-splicing fitness (ln)” value was -3.29 ± 0.41 (30 °C) and -2.28 ± 0.45 (37 °C). The corresponding values for AAGGAGCAAUAUUACGUCCU are -2.6 ± 0.25 and -2.27 ± 0.31. With AAGGAGCAAUAUUACGUGUC, the “self-splicing fitness (ln)” value (37 °C) is -2.12 ± 0.32. Turning to AAGGAGCAAUAUUACGUGUU, the “self-splicing fitness (ln)” value reads like this: (30 °C) -3.55 ± 0.14; (37 °C) -3.5 ± 0.24. In the same order, the values of AAGGAGCAAUAUUACGUUGA are -3.47 ± 0.23 and -2.52 ± 0.19. In the same order, the values of AAGUAGCAAUAUUACGAAAC are -3.53 ± 0.27 and -1.45 ± 0.29. The corresponding values for AAGUAGCAAUAUUACGACAC are -0.538 ± 0.19 and -0.726 ± 0.19. With AAGUAGCAAUAUUACGACGU, the “self-splicing fitness (ln)” value was -0.114 ± 0.059 (30 °C) and 0.403 ± 0.078 (37 °C).

As for AAGUAGCAAUAUUACGAGGU, the “self-splicing fitness (ln)” value by setting is: (30 °C) -1.94 ± 0.13; (37 °C) -1.97 ± 0.17. As to AAGUAGCAAUAUUACGAUCU, the “self-splicing fitness (ln)” value is, setting by setting: (30 °C) -0.032 ± 0.1; (37 °C) 0.3 ± 0.13. The corresponding values for AAGUAGCAAUAUUACGCAUA are -1.31 ± 0.15 and -0.759 ± 0.15. The corresponding values for AAGUAGCAAUAUUACGCCCA are -1.95 ± 0.35 and 0.232 ± 0.38. In the same order, the values of AAGUAGCAAUAUUACGCCCU are -0.145 ± 0.17 and -0.639 ± 0.19. AAGUAGCAAUAUUACGCCUC: the “self-splicing fitness (ln)” value (30 °C) is -1.63 ± 0.27. As to AAGUAGCAAUAUUACGCGAC, the “self-splicing fitness (ln)” value was -3.11 ± 0.31 (30 °C) and -1.7 ± 0.36 (37 °C). On to AAGUAGCAAUAUUACGCGAU, for which the “self-splicing fitness (ln)” value runs as follows: (30 °C) -3.2 ± 0.16; (37 °C) -2.19 ± 0.15.

Consider AAGUAGCAAUAUUACGCGGC, for which the “self-splicing fitness (ln)” value (37 °C) stood at 0.207 ± 0.41. With AAGUAGCAAUAUUACGGAGC, the “self-splicing fitness (ln)” value was -3.21 ± 0.32 (30 °C) and -1.35 ± 0.23 (37 °C). Take AAGUAGCAAUAUUACGGCGC: the “self-splicing fitness (ln)” value was -0.0482 ± 0.11 (30 °C) and 0.221 ± 0.14 (37 °C). As for AAGUAGCAAUAUUACGGGGG, the “self-splicing fitness (ln)” value runs as follows: (30 °C) -2.88 ± 0.26; (37 °C) -3.2 ± 0.35. On to AAGUAGCAAUAUUACGGUGU, for which the “self-splicing fitness (ln)” value runs as follows: (30 °C) -2.2 ± 0.09; (37 °C) -1.23 ± 0.099. On to AAGUAGCAAUAUUACGUAUU, for which the “self-splicing fitness (ln)” value is -1.97 ± 0.11 (30 °C) and -1.07 ± 0.14 (37 °C). For AAGUAGCAAUAUUACGUCGA, the “self-splicing fitness (ln)” value was -1.34 ± 0.1 (30 °C) and -1.07 ± 0.11 (37 °C). In the same order, the values of AAGUAGCAAUAUUACGUCUC are -1.59 ± 0.12 and -0.405 ± 0.14. The corresponding values for AAGUAGCAAUAUUACGUCUG are -0.515 ± 0.086 and 0.168 ± 0.11.

In the case of AAGUAGCAAUAUUACGUGGA, the “self-splicing fitness (ln)” value is, setting by setting: (30 °C) -3.83 ± 0.26; (37 °C) -2.14 ± 0.16. On to AAUAAGCAAUAUUACGAAGG, for which the “self-splicing fitness (ln)” value was -3.39 ± 0.48 (30 °C) and -2.04 ± 0.39 (37 °C). On to AAUAAGCAAUAUUACGACCU, for which the “self-splicing fitness (ln)” value runs as follows: (30 °C) 0.104 ± 0.12; (37 °C) 0.726 ± 0.16. As for AAUAAGCAAUAUUACGACUG, the “self-splicing fitness (ln)” value is, setting by setting: (30 °C) -0.872 ± 0.088; (37 °C) -1.18 ± 0.11.
